Results: publication PMC3600821

Biological target: Skeletal muscle actin (F-actin) (rabbit) (UniProt P68135)

actin-activated Mg-ATPase: K (ATPase) (the actin concentration giving V=Vmax/2)	actin-activated Mg-ATPase: Vmax/K (ATPase) (catalytic efficiency)	Substance
59 µM	130000 M⁻¹ s⁻¹	M761-2R (761-aa wild-type Dictyostelium myosin II catalytic domain fused to two α-actinin repeats) (from UniProt P08799 1-761)
17.3 µM	180000 M⁻¹ s⁻¹	S619C-IQ (S619C construct extended to include one IQ domain) (from UniProt P08799 1-790) (domain or fragment)
15.8 µM	1.23e+06 M⁻¹ s⁻¹	Muscle S1 (skeletal muscle myosin II subfragment 1) (domain or fragment)
